Results as given in article PMC2697320, “Identification of the high affinity binding site in the Streptococcus intermedius toxin intermedilysin for its membrane receptor, the human complement regulator CD59” (Molecular Immunology, 2009).

Molecular target: T1, Recombinant soluble CD59 comprising amino acids 1-76 with an 11 amino acid Ser/Gly linker and termin (human, terminal Cys reduced with TCEP and thiol-coupled to the PDEA-modified CM5 chip)
T1 construct: also called recombinant CD59; immobilised CD59
Assay: SPR
Conditions: both partners purified

Binder: AWEPWRLIYSKNDLPLVPC
- Kd: 4.92 µM
